Data taken from the nanobody polyreactivity screen of Harvey et al. (2022).

Assay: yeast display, Sf9 membrane polyspecificity reagent, FACS + sequencing; frameworks hold sequencing errors
How it was run: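 Sorting gates, low and high (top ~1%), were placed on anti-HA fluorescence to track expression and on streptavidin fluorescence to track reagent binding. A clone's polyreactivity label is taken from the gate it came out of. The reagent was 10% biotinylated, detergent-solubilized Sf9 membrane, applied for 1 hour at 4 °C to galactose-induced yeast display cells.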

Sequence | polyreactivity (PSR sort gate)
QVQLVESGGGLVQAGGSLRLSCAASGSIFGYNAMGWYRQAPGKERELDAAISISDGSTYYADSVKGRFTISRDNAKNTVYFQMNSLKPEDTAVYYCAAPRDLSGYGNFGNGPFYYWGQGTQVTVSS | low polyreactivity
QVQLVESGGGLVQAGGSIRLSCAASGSTFYAYAMGWYRQAPGKERELVAAIDTGGSTYYADSVKGRFTISRDNAKNTVYLQMNSLKPEDTAVYYCNAVVDTTEYPYEYDYWGQGTQVTVSS | low polyreactivity
QVQLVESGGGLVQAGGSLRLSCAASGRILYGYTMGWYRQAPGKEREFVARITRRGGRTNYADSVKGRFTISRDNAKNTVYLQMNSLKPEDTAVYYCAADPIRDSWWQYFQDGREYDYWGQGTQVTVSS | low polyreactivity
QVQLVESGRGLFQAGGSLRLSCAASGIIFKSYAMGWYRQAPGKEREFVAAISWSGGRTTYADSLKGRFTISRDNAKNTVYLPMNSLKPEDTAVYYCAAAARGKFYYWGQGTQVTVSS | high polyreactivity
QVQLVESGGGLVQAGGSLRLSCAASGSTFGYYTMGWYRQSPGKERELVAAITWRGGRTYYADSVKGRFTISRDNEKNTVYLQMNSLKPEDTAVYYCAARSTVVMDYWGQGTKVTVSS | high polyreactivity
QVQLQESGGGLVQAGGSLRLSCAASGNIFPTVSMGWYRQAPGKEREFVVTIDPGSNTYYADSAKGRFTISRDNAKNTVYLQMNSPKPEDTAVYYCAVVFADWATYGYWGQGTQVTVSS | high polyreactivity
QVQLVESGGGLVQAGGSLRLSCAASGGMGWYRQAPGKERELVATISSVGSTNYADSVKGRFTISRDNAKNTVYLQMNSLKPEDTAVYYCNATGVQYFLYGYWGQGTQVTVSS | low polyreactivity
QVQLVESGGGLVQAGGSLRLSCAASGSTFRWNAMGWYRQAPGKERELDAAINSGGSTNYADSVKGRFTISRDNAKNTVYLQMNSLKPEDTAVYYCATRYDVSYIKFDYWGQGTQVTVSS | high polyreactivity
QVQLVESGGGLVQAGGSLRLSCAASGSIFYSNAMGWYRQAPGKERELVAAISDGGTSTYYADSVKGRFTISRDNAKNTVYFQMNSLKPEDTAVYYCAAESTLQDWNWYKYYYWGQGTQVTVSS | low polyreactivity
QVQLVESGGGLVQAGGSLRLSCAASGSTFYGNAMVWYRQAPGKERELVARITTSGSTYYADSVKGRFTISRDNAKNTVYLQMNSLKPEDTAVYYCAKRGYGPSIRYYYWGHGTQVTVSS | high polyreactivity
QVQLVESGGGLVQAGGSLRLSCAASGSTSARYAMGWYRQAPGKERELVATITRSGTTKYADSVKGRFTISRDNAKNTVYLQMNSLKPEDTAVYYCNTDTYFPLYDYWGQGTQVTVSS | low polyreactivity
QVQLVESGGGLVKAGGSLRLICDASGRTFYSYAMGWYRQAPGKERELVAAINTSGGRTHYADSVKGRFTISRDNAKYTVYLHMNSLKAEDTAVYYCAAERKNKYDYWGQGTQVTVSS | high polyreactivity
QVQLVESGGSLVQAGGSLRVSCAASRSIFEHYAMGWYRQAHGKERELVATISSASRTHYADSVKGRFTISRDNAKNTVYLQRNSLKREDTAVYYCAARLYYVWYAPYYYWGQGTQVSVSS | high polyreactivity
QVQLVESGGGLVQAGGSLRLSCAASGFTFVRYAMGWYRQAPGKERELVAGISRRGGSTYYADSVKGRFTISRDNAKNTVYLQMNSLKPEDTAVYYCAAKPIYYSRGYYWGQGTQVTVSS | high polyreactivity
QVQLVESGGGLVQAGGSLRLSCAASGLIFNYYAMGWYRQAPGKEREFVAAISGRGGNTYYADSVKVRFTISRDNAKTTVYLQINSLKPEDTAVYYCAARRYYSNREYDYWGQGTQVTVSS | high polyreactivity
QVQLVESGGGLVQAGGTIRISSAPSGRTLGCNAMGRSRQAPGKEWELVSAISYSGGDTTYADSVKGRFTISRDKAKNTVYLQMNSLKPEDTAVYYCAARGDYYVYAYNRRFVYLGQGTQVTVSS | low polyreactivity
QVQLVESGGGLVQAGGSLRLSCAASGRIFRYYAMGWYRQAPGKERELVAAISDSSGSTYYADSVKGRFTISRDNAKNTVYLQMNSLKPEDTAVYYCRYYFGSGFYYWGQGTQVTVSS | high polyreactivity
QVQLVESGGGLVQAGGSLRLSCAASGRTFGWNAMGWYIQAPGKERELVAAITSGGSTSYADSVKGRFTISRDNEKNTVYLQMNCLKPEDTAVYYCAAYLGIYSRVNYWGQGTQVTVSS | low polyreactivity
QVQLVESGGGLVQAGGSLRLSCAASGFTFAFYAMGRYRQAPGKERELVAAISRRGGSTTYADSVKGRFTISRDNAKNTVYLQMNSLKPEDTAVYYCNAVSTRNPGPDYYYWGQGTQVTVSS | high polyreactivity
QVQLVESGGGLVQAGGSLRLSCAASGSTFSVNAMGWYRQAPGKERELVAAISSTGSTKYADSVKGRFTISRDNAKNTVYLQIISLKPEDTAVYCAASNADYEYYPFSDWYFSPYDYWGQGTQVTVSS | low polyreactivity
QFQLVESGGGLVQAGGSLRLSCAASGRTISHNVMGWYRQAPGKEWELVAAISRNGGRTYYADSVKGRFTISRDNAKNTVYLQLNSLKTEDTAVYYCAAEAYPEYYYWGLGTQVTVSS | high polyreactivity
QVQLVESGGGLVQAGGSLRLSCAASGITFYSNAMGWYRPAPGKERELVAAISYRGGSTYYADSVKGRFTISRDNAKNTVYLQMNSLKPEDTAVYYCNKEVDWGWGRISYDSWGQGTQVTVSS | low polyreactivity

Sequence | polyreactivity (PSR sort gate)
QVQLLESGGGLVQAGGSHRLSCAASGYIFHYNAMGWYIQAPGKERELVAAISYSGGSTYYADSVKGRFTISRDNAKNTVYLQMNSLKPEDTAVYYCAASRRPFPGYYWGQGTQVTVSS | high polyreactivity
QVQLVESGGGLVQAGGSLRLSCAASGRTFNYYAMGSYRQAPGKERELVAAISWSGTPTYYADSVKGRFTISRDNAKNTVYLQMNSLKPEDTAVYYCAAHSGSTYKYWGQGTQVTVSS | low polyreactivity
QVQLVESGGGLVQAGGSLRLSCAASGLTFYRYAMGWYRQAPGKERELVAAITSSGRTNYADSVKGRFTISRDNAKNTVYLQMNSLKPEDTAVYYCNAVRRTFNGPGSSQGYDYWGQGTQVTVSS | high polyreactivity
QVQLVESGGGLVQAGGSLRLSCAASGYTIRNYAMGWYRQAPGTERELVAAIRGSGGSTYYADSVKGRFTISRDNAKNTVYLQMNSLKPEDTAVDYCNADQLVWQRYGVLYEYDYWGQGTQVTVSS | high polyreactivity
QVQLVESRGGLVQAGGSLRLSCAASGLIFTVNAMGWYRQAPGKERELVAAISQSGGSTYYADSVKGRFTISRDNAKNTVYLQMNSLKPEDTAVYYCAAKSDPYRHDYWGQGTQVTVSS | low polyreactivity
QVQLVESGGGLVQAGGSLRLSCAASGSTFSQYVMGWYRQAPAKERELVAAISSGGSTYYADSVKGRFTISRDNAKNTVYLQMNSLKPEDTAVYYCAAKYDGSYVGLYWYSMNYWGQGTQVTVSS | low polyreactivity
QVQLVESGGGLVQAGGSLRLSCAASGRTIRGNARGWYIQAPGKERELVAVNTASGSTTYADSVKGRFTISRDNAKNTVYLQMNSLKSEDTAVYYCAKYVPWYTLWLGGTDRDYWGQGTQVTVSS | low polyreactivity
QVQLVESGGALVQAGGSLRLSCAASGYIFDRYAMGWYRQAPGKEWELVAAISGRGGSTYYADSVKGRFTISRDNAKNTVYLQMNSLKPEDTAVYYCAAARSWHLYHRYDYWGQGTQVTVSS | high polyreactivity
QVQLVESGGGLVQAGGSLRLSCAASGSTLYRNAMGWYRQAPGKERELVAAINYRGTRTYYADSVKGRFTISRDNAKNTVYLQMNSLKPEDTAVYYCAKDYSQFVTYPYDYWGQGTQVTVSS | low polyreactivity
QVQLVESGGRLVQAGVSLRISSAASGYISRVYAMGWYRHAPGKERELVAAITRSTTYYADSVKGRFTISRDNAKNTVYLQMNSLKPEDTAVDYCNADWASPGQVRMYYWGQGTQVTVSS | high polyreactivity
QVKLVESGGGLVQAGGSLRLSFAASAGTFNSYAKGWYRQEPGKERELVATISYSGGSTYYADSVKGRFTISRDNAKYTVYLQMNSLKPEDTAVYYCAKVRYYPYSPGGLDYWGQGTQVTVSS | low polyreactivity
QVQLVESGGGLVQAGGSLRLSCAASGNISWYNAMGWYRQAPGKERELVAAITSSGSGTYYADSVKGRFTISRDNAKHTVYLQMNSLKPEDTAVYYCIADNAIRYDYWGQGTQVTVSS | high polyreactivity
QVQLVESGGGLVQAGGSLRLSCAASGFTFRKYAMGWYRPAPGKERELVAAITANGGRTYYADSVKGRFTISRDNAKNTVYLQMNSLKPEDTAVYYCARDWGKSEYDYWGQGTQVTVSS | high polyreactivity
QVQLVESGGGLVQAGGSLRLSCAASGSNFVTYAMGWSRQAPGKERELVAAISSSGTSTYYADSVKGRFTISRDNAKNTVYLQMNSLKPEDTAVYYCAAYLRGYDYGYWGQGTQVTVSS | high polyreactivity
QVQLVESGGGLVQAGGSLRLSCAASGRIFYGYAMGWYRQAPGKERELVAAITWSGGRTYYADSVKGRFTISRDNAKNTVYLQMNSLKPEDTAVYYCNRPRRTSPSTYYHWGQGTQVTVSS | low polyreactivity
QVQLVESGGGLVQAGGSLRLSCAASGSIFGHNAMGWYRQAPGKERELVAAITSTGGSTYYADSVKGRFTISRDNAKNTVYLQMNSLKPEDTAVYYCAKGWYAGYPYDYWGQGTQVTVSS | low polyreactivity
QVQLVESGGGLVQAGGSLRLSCAASGSIFLWYTMGWYRQAPGKERELVAAISSSGGSTYYADSVKGRFTISRDNAKNTVYLQTNSLKPEDNAVYYCAAAKLFYYGRKYGKYDYWGQGTQVTVSS | high polyreactivity
QVQLVESGGGLFQAGGSLRLSCAASGFTIYHNAMRWYRQEPGKERELVAAISSSGDSTYYADSVKGRFTISRDNAKNTVYLQMNSLKPEDTAVYYCNDYFYYLSLYYYYWFNYDYWGQGTQVTVSS | low polyreactivity
QVQLVESGGGLVQAGGSLRLSCAASGSIFLNYAMGWYRQAPGKERELVAGISNGGSTNYADSVKGRFTISRDNAKYTVYLQMNSLKPEDTAVFYCARPGYKSRGKRFDYWGQGTQVTVSS | low polyreactivity
QVQLVESGGGLVQAGGSHRLSCAASGRTFRYNAMGWYRQAPGKERELVAAISGRGSSTYYADSVKGRFTISRDNAMNTVYLQMNSLKPEETAVYYCAALPASVRRPGWHDYWGQGTQVTVSS | high polyreactivity
QVQLVESGGGLVQAGGSLRLSCAASGSTLYIYAMGWYRQAPGKERELVAAITSSTGSTYADSVKGRFTISRDNAKNTVYLQMNSLKPEDTAVFVCNAGGPLQPYDYWGQGTQVTVSS | low polyreactivity
